Assay results reported in paper PMC9957047, “A Role for the Interactions between Polδ and PCNA Revealed by Analysis of pol3-01 Yeast Mutants” (Genes, 2023).

Biological target: T1, PCNA (Pol30) immunoprecipitated in the co-IP of Figure 2C (S. cerevisiae, UniProt P15873 1-258)
T1 construct: Pol30 (PCNA), S. cerevisiae; homotrimeric clamp of three copies of Pol30; No tag is named for PCNA in this experiment; the methods precipitate with an anti-PCNA antibody; source: S. cerevisiae, in lysate
T1 sequence (looked up): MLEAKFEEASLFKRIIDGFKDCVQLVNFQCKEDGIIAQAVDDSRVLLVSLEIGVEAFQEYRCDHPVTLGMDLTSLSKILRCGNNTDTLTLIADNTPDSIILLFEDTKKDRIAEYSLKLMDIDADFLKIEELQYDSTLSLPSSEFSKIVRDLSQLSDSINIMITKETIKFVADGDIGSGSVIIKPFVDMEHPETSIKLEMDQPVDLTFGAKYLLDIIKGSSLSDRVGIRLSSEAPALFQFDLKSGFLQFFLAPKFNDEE
Test: co-IP; PCNA immunoprecipitated from yeast extract (methods: 2 μg anti-PCNA antibody, overnight at 4 °C, washes with lysis buffer at 220 mM NaCl); level of FLAG-tagged Pol3 or Pol3-01 co-IPed measured (Figure 2C)
Conditions: partners not purified

fold reduction in co-IP against Pol3: 4 fold
B1: FLAG-tagged Pol3-01 (Pol3-01-Flag) of the co-IP of Figure 2C (natural protein, S. cerevisiae, UniProt P15436 1-1097, looked up)
chain: MSEKRSLPMVDVKIDDEDTPQLEKKIKRQSIDHGVGSEPVSTIEIIPSDSFRKYNSQGFKAKDTDLMGTQLESTFEQELSQMEHDMADQEEHDLSSFERKKLPTDFDPSLYDISFQQIDAEQSVLNGIKDENTSTVVRFFGVTSEGHSVLCNVTGFKNYLYVPAPNSSDANDQEQINKFVHYLNETFDHAIDSIEVVSKQSIWGYSGDTKLPFWKIYVTYPHMVNKLRTAFERGHLSFNSWFSNGTTTYDNIAYTLRLMVDCGIVGMSWITLPKGKYSMIEPNNRVSSCQLEVSINYRNLIAHPAEGDWSHTAPLRIMSFAIACAGRIGVFPEPEYDPVIQIANVVSIAGAKKPFIRNVFTLNTCSPITGSMIFSHATEEEMLSNWRNFIIKVDPDVIIGYNTTNFDIPYLLNRAKALKVNDFPYFGRLKTVKQEIKESVFSSKAYGTRETKNVNIDGRLQLDLLQFIQREYKLRSYTLNAVSAHFLGEQKEDVHYSIISDLQNGDSETRRRLAVYCLKDAYLPLRLMEKLMALVNYTEMARVTGVPFSYLLARGQQIKVVSQLFRKCLEIDTVIPNMQSQASDDQYEGATVIEPIRGYYDVPIATLDFNSLYPSIMMAHNLCYTTLCNKATVERLNLKIDEDYVITPNGDYFVTTKRRRGILPIILDELISARKRAKKDLRDEKDPFKRDVLNGRQLALKISANSVYGFTGATVGKLPCLAISSSVTAYGRTMILKTKTAVQEKYCIKNGYKHDAVVVYGDTDSVMVKFGTTDLKEAMDLGTEAAKYVSTLFKHPINLEFEKAYFPYLLINKKRYAGLFWTNPDKFDKLDQKGLASVRRDSCSLVSIVMNKVLKKILIERNVDGALAFVRETINDILHNRVDISKLIISKTLAPNYTNPQPHAVLAERMKRREGVGPNVGDRVDYVIIGGNDKLYNRAEDPLFVLENNIQVDSRYYLTNQLQNPIISIVAPIIGDKQANGMFVVKSIKINTGSQKGGLMSFIKKVEACKSCKGPLRKGEGPLCSNCLARSGELYIKALYDVRDLEEKYSRLWTQCQRCAGNLHSEVLCSNKNCDIFYMRVKVKKELQEKVEQLSKW
notes: Pol3, catalytic subunit of DNA polymerase delta, S. cerevisiae, pol3-01 allele (D321A, E323A); the tags may be swapped in the text; source: S. cerevisiae, in lysate
